Results reported in US20210095024A1 (Janssen / Centocor, published 2021).
Residue numbers refer to the chain shown, from its start.

B1: CCMB18.004 (antibody, V domains shown)
VH: QVQLVQSGSELKKPGASVKVSCKASGYTLTDYGMNWVRQAPGQGLQWMGWINTNTGNPTYAQGFTGRFVFSLDTSVSTAYLQISSLKTEDTAVYYCARKAIWGWFDPWGQGTLVTVSS
VL: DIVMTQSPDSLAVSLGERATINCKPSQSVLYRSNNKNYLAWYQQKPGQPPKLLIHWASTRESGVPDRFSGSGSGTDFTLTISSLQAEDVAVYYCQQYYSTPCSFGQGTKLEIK
notes: also called mAb 6
B2: CCMB09.004 (antibody, V domains shown)
VH: QVQLQESGPGLVKPSQTLSLTCTVTGDSIRSGGHYWSWIRQHPGKGLEWIGNIYYSGSTHYNPSLKSRLTISVDTSKNQFSLKVSSVTAADTAVYYCARGRLLWFGEPQDFQHWGQGTLVTVSS
VL: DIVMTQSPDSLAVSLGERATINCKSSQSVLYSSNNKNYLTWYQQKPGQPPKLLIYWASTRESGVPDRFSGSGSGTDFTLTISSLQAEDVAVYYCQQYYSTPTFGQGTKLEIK
notes: also called mAb 5
B3: CCMB66.004 (antibody, V domains shown)
VH: EVQLVQSGAEVKKPGESLKISCKGSGYSFTSYWIGWVRQMPGKGLEWMGIIYPGDSDTRYSPSFQGQVTISADKSISTAYLQWSSLKASDTAMYYCARGYPAPTVNDLDYWGQGTLVTVSS
VL: not shown
notes: also called mAb 12
B4: CCMB20.004 (antibody, V domains shown)
VH: EVQLLESGGGLVQPGESLRLSCAASGFTFNNYAMTWVRQAPGKGLDWVSSISGTSANTYYADAVKGRFTISRDNSMTTLYLQMNSLRAEDTAVYYCAKPILTLFGELPLDYWGQGTLVTVSS
VL: EIVMTQSPATLSVSPGERATLSCRASQSVSSNLAWYQQKTGQAPRLLIYGASTRATAFPARFSGSGSGTEFTLTISSLQSEDFAVYYCQQYNNWPLTFGGGTKVEIK
notes: also called mAb 7
B5: CCMB02.004 (antibody, V domains shown)
VH: EVQLLESGGGLVQPGGSLRLSCAASGFTFINYAMNWVRLTPGKGLEWVSVISGSGSGTYYADSVKGRFTVSRDNSKNTLYLQMNSLRVEDTAIYYCASPPPMVRGVIITIGNYWGQGALVTVSS
VL: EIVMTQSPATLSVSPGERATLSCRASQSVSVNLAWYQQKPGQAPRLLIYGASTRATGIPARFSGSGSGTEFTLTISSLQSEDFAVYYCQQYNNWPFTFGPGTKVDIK
notes: also called mAb 1
B6: CCMB07.004 (antibody, V domains shown)
VH: B5 VH with I30T, T40A
VL: B4 VL with S31V, T40P, A57S, F58I, A60T, L96F, G100P
notes: also called mAb 4
B7: CCMB35.004 (antibody, V domains shown)
VH: EVQLLESGGGLVQPGESLRLSCAASGLTFSDYAMNWVRQAPGKGLYWVSSISGTGGSTYYADSLKGRFTISRDNSKNTLYLQMNSLRAEDTAVYYCAKDIAVGVTAYFDHWGQGTLVTVSS
VL: SSELTQDPAVSVALGQTVRITCQGDSLRTYSASWYQQKPGQAPVLVIYGKNNRPSGIPDRFSGSSSGNTASLTITGAQAEDEADYYCNSRDSRGNLLVVFGGGTKLTVL
notes: also called mAb 9
B8: CCMB23.004 (antibody, V domains shown)
VH: QLQLQESGPGLVKPSETLSLTCTVSADSISRTSYYWGWIRQPPGKGLEWIGTIYYSGSTYYNPSLKSRVTISVDTSRNHFSLTLNSVTAADTAVYYCARQIAVGAHRFDYWGQGTLVTVSS
VL: DIQLTQSPSFLSASVGDRVTITCRASQGISSYLAWYQQKPGKAPKLLIYAASTLQSGVPSRFSGSGSGTEFTLTISSLQPEDFATYYCQQLNSYPWTFGQGTKVEIK
notes: also called mAb 8
B9: CCMB42.004 (antibody, V domains shown)
VH: EVQLLESGGGLVQPGGSLRLSCAASGFTFNTYGMSWARQAPGKGLEWVSTISGSGDNTYYADSVKGRFTISRDNSKNTLYLQINSLRAEDTAVYYCAKGGLLWFGELPYPFDYWGQGTLVTVSS
VL: QSALTQPASVSGSPGQSITISCTGTSSDVGGYNYVSWYQQHPGKAPKLMIYDVSNRPSGVSNRFSGSKSDNTASLTISGLQAEDEADYYCSSYISTSTLYVFGIGTKVTVL
notes: also called mAb 10
B10: CCMB61.004 (antibody, V domains shown)
VH: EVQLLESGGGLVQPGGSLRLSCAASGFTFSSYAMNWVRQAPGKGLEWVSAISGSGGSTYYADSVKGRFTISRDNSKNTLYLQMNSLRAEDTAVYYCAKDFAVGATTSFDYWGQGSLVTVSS
VL: SSELTQDPAVSVALGQTVRITCQGDSLRSYYVSWYQQKPGQAPTLVIYGKNNRPSGIPDRFSGSSSGNTPSLTITGAQAEDEADYYCNSRDSSNHLVVFGGRTKLTVL
notes: also called mAb 11
B11: CCMB03.004 (antibody, V domains shown)
VH: QVQLVQSGSELRTPGASVKVSCKASGYTFTSYGLSWVRQAPGQGLEWMGWINTNTGNPTYAQGFTGRFVFSLDTSVSTAYLQISSLKAEDTAVYYCARKGIWGPFDYWGQGTLVTVSS
VL: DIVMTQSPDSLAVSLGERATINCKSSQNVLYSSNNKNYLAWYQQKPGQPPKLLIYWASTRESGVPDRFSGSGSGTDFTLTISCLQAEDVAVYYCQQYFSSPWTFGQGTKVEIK
notes: also called mAb 2
B12: CCMB04.004 (antibody, V domains shown)
VH: B11 VH with R12K, T13K, S31N, L34V, S35N, A61V, S77T, Q82H, Y95F, Y107H
VL: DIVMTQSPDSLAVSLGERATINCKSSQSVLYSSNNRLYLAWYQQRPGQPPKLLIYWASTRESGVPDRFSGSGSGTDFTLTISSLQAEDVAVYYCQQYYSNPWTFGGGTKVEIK
notes: also called mAb 3

Key:
[1] = biological target: T1, recombinant CEACAM5 (R&D Systems #4128-CM) (human, UniProt P06731 35-685); assay: ELISA, plate-coated recombinant CEACAM5
T1 construct: Bought protein
T1 sequence: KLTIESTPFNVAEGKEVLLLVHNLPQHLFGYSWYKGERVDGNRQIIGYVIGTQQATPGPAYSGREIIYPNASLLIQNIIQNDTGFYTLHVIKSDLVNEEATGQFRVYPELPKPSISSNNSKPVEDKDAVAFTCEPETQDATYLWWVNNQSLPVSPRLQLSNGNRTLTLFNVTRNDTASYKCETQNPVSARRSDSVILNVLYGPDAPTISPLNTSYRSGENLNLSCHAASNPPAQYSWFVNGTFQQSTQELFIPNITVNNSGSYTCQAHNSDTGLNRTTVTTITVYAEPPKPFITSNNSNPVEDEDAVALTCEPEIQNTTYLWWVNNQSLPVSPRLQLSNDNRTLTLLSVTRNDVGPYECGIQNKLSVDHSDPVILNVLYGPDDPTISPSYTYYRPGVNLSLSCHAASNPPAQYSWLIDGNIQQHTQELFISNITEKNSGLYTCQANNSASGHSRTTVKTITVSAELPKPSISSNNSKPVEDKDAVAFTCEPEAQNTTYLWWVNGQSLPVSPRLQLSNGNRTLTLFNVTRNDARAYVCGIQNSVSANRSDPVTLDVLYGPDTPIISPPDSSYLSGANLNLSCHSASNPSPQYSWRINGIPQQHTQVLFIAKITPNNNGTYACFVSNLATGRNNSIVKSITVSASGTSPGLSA
Experimental: (§1) Plates were coated with 50 μl of 1 μg/ml of CEACAM1 (#2244-CM, R&D Systems) overnight at 4° C. The next day, in 16 h, plates were blocked with 200 μl 0.4% bovine serum albumin (BSA) (Sigma, A9647) in PBS for 1 hr at room temperature. Plates were washed once with 300 μl of 0.02% Tween-20 in PBS on a Biotek plate washer. 1/2 log dilutions of CEACAM mAbs starting from 10 μg/ml to 0.0001 ug/ml in 0.4% BSA, or PBS only, were plated for each antibody. 50 μl of each dilution were added to coated plates. Plates were incubated at room temp for approx 30 min. Plates were then washed 3 times with 300 μl of 0.02% Tween-20 in PBS using a Biotek plate washer. […] Plates were incubated at room temp for approximately 30 min. Plates were then washed 3 times with 300 ul of PBS/0.02% Tween-20 on a Biotek plate washer. 50 μl of 3,3′,5,5′-Tetramethylbenzidine (TMB, Sigma T0440) were added, allowed for color development, followed by adding 50 ul of 4N H₂SO₄. Plates were analyzed at 450 nm using EnVision Microplate Reader (PerkinElmer). Isotype control (CNT08939 antibody, specific to RSV virus, having the human IgG2 sigma backbone) was plated on last 3 plates at a concentration 10 μg/ml. Absorbance at 450 nm (FIG. 2) was analyzed using XY scatter plots and non-linear fit curves were generated after log transformation, and EC50 values were calculated, using GraphPad Prism (GraphPad Software, San Diego, Calif.). For several antibodies the EC50 could not be calculated using GraphPad Prism due to poor curve fit; in these cases the EC50 values were visually estimated at the midpoint of the available curve. EC50 values for binding to recombinant CEACAM1 are represented in Table 1.
(§2) 3.1 Binding to recombinant CEACAM5 and CEACAM6. Cross-screening for specificity of purified phage and hybridoma antibodies to recombinant CEACAM5 (R&D Systems #4128-CM) and CEACAM6 (R&D Systems #3934-CM) was performed using ELISA, according to the protocol described in Example 2. Binding curves for binding of mAbs to CEACAM5 are shown on FIG. 5a, and to CEACAM6 on FIG. 5b.

[2] = biological target: T2, CEACAM6 overexpressed on HEK293T cells (human, UniProt P40199 35-320); assay: flow cytometry on HEK293T cells overexpressing CEACAM6
T2 construct: also called CEACAM6 expressing HEK293T cells
T2 sequence: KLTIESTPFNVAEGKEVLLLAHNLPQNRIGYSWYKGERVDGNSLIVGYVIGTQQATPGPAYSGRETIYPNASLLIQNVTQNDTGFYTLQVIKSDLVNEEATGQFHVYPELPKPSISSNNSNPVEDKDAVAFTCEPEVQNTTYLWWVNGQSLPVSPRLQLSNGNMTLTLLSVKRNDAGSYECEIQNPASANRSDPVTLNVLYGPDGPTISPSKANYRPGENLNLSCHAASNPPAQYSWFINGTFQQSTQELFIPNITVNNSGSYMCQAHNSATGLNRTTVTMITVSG

[3] = biological target: T3, recombinant CEACAM6 (R&D Systems #3934-CM) (human, UniProt P40199 35-320); assay: ELISA, plate-coated recombinant CEACAM6
T3 construct: Bought protein
T3 sequence: T2 sequence
Experimental: as §1, §2

[4] = biological target: T4, CEACAM5 overexpressed on HEK293T cells (human, UniProt P06731 35-685); assay: flow cytometry on HEK293T cells overexpressing CEACAM5
T4 construct: also called CEACAM5 expressing HEK293T cells
T4 sequence: T1 sequence

[5] = biological target: T5, full length CEACAM1 overexpressed on HEK293T cells (human, UniProt P13688 35-526); assay: flow cytometry on HEK293T cells overexpressing CEACAM1
T5 construct: also called CEACAM-1 expressing HEK293T cells
T5 sequence: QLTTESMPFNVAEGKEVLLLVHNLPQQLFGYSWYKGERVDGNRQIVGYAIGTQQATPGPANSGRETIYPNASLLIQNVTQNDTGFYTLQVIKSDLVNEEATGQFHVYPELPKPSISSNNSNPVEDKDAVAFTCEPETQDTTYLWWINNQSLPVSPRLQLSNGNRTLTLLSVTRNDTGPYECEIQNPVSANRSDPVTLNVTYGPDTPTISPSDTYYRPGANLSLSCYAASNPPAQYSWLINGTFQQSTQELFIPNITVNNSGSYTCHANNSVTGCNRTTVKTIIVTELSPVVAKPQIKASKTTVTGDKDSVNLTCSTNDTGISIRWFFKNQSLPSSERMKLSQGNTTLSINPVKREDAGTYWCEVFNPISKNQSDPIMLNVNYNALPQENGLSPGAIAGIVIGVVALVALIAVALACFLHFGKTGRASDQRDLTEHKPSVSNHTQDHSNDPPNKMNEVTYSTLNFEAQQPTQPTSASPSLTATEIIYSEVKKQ
Excerpt: CEACAM1 overexpressing cells were then subcloned and sorted for purified populations of CEACAM1 positive cells, using standard techniques (FIG. 3). These cells were then used to generate binding curves by flow cytometry (FIG. 4).

| Binder | EC50 [1] [µg/mL] | EC50 [2] [µg/mL] | EC50 [3] [µg/mL] | binding result [2] | binding result [4] | EC50 [5] [µg/mL] |
| --- | --- | --- | --- | --- | --- | --- |
| B1 | 4.32 | 0.0118 | 6.05 | – | – | – |
| B2 | 4.46 | 0.0158 | 5.13 | – | – | – |
| B3 | 1690 | – | – | no binding | – | – |
| B4 | 4.27 | – | – | no binding | – | – |
| B5 | 50 | – | – | no binding | – | – |
| B6 | 9.77 | – | – | no binding | – | – |
| B7 | – | – | – | no binding | no binding | 0.0275 |
| B8 | – | – | – | no binding | no binding | 0.00419 |
| B9 | 1.14 | – | – | no binding | – | – |
| B10 | – | – | 1240 | – | no binding | 0.0353 |
| B11 | 16.4 | 0.00515 | 5 | – | – | – |
| B12 | 6.46 | 0.0109 | 5.57 | – | – | – |
